B1: DnaJ homolog subfamily C member 3 (Mus musculus), Q91YW3 (parent)
chain: MVAPGSVGSRLGAVFPFLLVLVDLQYEGAECGVNADVEKHLELGKKLLAAGQLADALSQFHAAVDGDPDNYIAYYRRATVFLAMGKSKAALPDLTKVIALKMDFTAARLQRGHLLLKQGKLDEAEDDFKKVLKSNPSEQEEKEAESQLVKADEMQRLRSQALDAFDGADYTAAITFLDKILEVCVWDAELRELRAECFIKEGEPRKAISDLKAASKLKSDNTEAFYKISTLYYQLGDHELSLSEVRECLKLDQDHKRCFAHYKQVKKLNKLIESAEELIRDGRYTDATSKYESVMKTEPSVAEYTVRSKERICHCFSKDEKPVEAIRICSEVLQMEPDNVNALKDRAEAYLIEEMYDEAIQDYEAAQEHNENDQQIREGLEKAQRLLKQSQKRDYYKILGVKRNAKKQEIIKAYRKLALQWHPDNFQNEEEKKKAEKKFIDIAAAKEVLSDPEMRKKFDDGEDPLDAESQQGGGGNPFHRSWNSWQGFNPFSSGGPFRFKFHFN

Variants of: B1
Settings: with bip_human HSPA5, P11021
Sequence of bip_human HSPA5, P11021 (P11021 whole entry): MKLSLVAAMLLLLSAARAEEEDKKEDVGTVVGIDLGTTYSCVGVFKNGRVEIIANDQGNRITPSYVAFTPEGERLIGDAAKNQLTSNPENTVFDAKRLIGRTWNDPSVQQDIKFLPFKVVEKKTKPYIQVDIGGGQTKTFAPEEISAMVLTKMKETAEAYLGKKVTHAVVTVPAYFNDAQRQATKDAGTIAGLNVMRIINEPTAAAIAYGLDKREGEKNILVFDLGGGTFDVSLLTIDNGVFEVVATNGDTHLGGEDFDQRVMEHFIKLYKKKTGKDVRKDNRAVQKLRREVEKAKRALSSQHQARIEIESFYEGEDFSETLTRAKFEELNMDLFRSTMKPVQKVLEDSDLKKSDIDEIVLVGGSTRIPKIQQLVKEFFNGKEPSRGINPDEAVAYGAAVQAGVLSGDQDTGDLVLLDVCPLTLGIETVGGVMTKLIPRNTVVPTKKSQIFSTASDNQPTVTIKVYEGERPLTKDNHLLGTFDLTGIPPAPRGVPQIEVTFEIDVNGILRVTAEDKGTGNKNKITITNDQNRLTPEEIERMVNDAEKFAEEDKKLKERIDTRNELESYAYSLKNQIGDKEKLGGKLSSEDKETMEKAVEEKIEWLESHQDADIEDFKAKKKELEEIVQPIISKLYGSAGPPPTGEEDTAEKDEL

| Variant | effect of a mutation on the interaction |
| --- | --- |
| H422Q | disrupting interaction |

Reference: IntAct's records for PubMed 18923430
